The target in the experiment is T1, purified human properdin (human, UniProt P27918 28-469).
T1 construct: also called factor P
In words: ELISA, properdin coated, normalized 293T supernatants, anti-V5 detection. On the technique in general: An ELISA detects its analyte on a solid surface through an enzyme-linked reagent.

T1 sequence (P27918 28-469 limits assumed): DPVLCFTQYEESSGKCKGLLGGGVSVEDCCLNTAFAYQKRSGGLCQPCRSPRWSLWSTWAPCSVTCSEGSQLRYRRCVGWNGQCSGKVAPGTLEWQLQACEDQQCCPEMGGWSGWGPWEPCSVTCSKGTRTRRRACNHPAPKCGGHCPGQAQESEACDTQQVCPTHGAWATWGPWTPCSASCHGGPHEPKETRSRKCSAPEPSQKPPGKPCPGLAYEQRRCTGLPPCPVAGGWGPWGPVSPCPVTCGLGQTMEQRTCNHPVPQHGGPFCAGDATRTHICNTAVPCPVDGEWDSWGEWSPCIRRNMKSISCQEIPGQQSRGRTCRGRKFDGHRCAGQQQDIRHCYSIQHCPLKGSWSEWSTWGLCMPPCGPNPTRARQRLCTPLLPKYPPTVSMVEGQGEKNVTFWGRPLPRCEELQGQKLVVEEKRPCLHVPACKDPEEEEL

B1: recombinant Rhipicephalus appendiculatus histamine-binding protein 2 (RaHBP2) (other, UniProt O77421 20-190, looked up, not shown: small tags and cut ends)
chain: NQPDWADEAANGAHQDAWKSLKADVENVYYMVKATYKNDPVWGNDFTCVGVMANDVNEDEKSIQAEFLFMNNADTNMQFATEKVTAVKMYGYNRENAFRYETEDGQVFTDVIAYSDDNCDVIYVPGTDGNEEGYELWTTDYDNIPANCLNKFNEYAVGRETRDVFTSACLE
notes: Negative control, supernatant of transfected 293T cells
In the case of B1, the binding result was “no binding”.

(Values after patent publication US20110008351A1 (UNIVERSITE LIBRE DE BRUXELLES, published 2011).)
